Reference: publication PMC4187101

Target: DNA adenine-N6 methyltransferase M.TaqI (Thermus aquaticus) (UniProt P14385)
Experiment: competition, 2-aminopurine fluorescence titration
Conditions: 20 mM TrisOAc pH 7.9, 10 mM Mg(OAc)2, 50 mM KOAc, 0.01% reduced Triton X-100, with 1 mM DTT (unlocked) or no reducing agent (locked), 400 nM duplex vs 200 nM …

Sequence of DNA adenine-N6 methyltransferase M.TaqI (Thermus aquaticus) (P14385 whole entry): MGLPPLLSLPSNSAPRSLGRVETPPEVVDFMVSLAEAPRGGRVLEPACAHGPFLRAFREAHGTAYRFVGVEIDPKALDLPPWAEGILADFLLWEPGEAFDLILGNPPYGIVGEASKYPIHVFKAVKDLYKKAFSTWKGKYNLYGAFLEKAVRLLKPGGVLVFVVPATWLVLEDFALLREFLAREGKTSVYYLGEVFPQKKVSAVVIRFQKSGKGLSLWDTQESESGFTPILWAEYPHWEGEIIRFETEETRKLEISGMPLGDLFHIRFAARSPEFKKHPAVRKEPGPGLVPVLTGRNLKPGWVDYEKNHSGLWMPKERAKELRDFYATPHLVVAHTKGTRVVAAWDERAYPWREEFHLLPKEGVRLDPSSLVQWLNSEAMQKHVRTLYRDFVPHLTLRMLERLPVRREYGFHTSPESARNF

Row | Sequence | Kd (strand 1 position 9 (N) = 6-thio-2'-deoxyinosine (I6S), strand 2 U6 = 4-thio-2'-deoxyuridine (U4S), A9 = N6-methyl-dA, all other residues DNA) [nM] | Kd (strand 1 position 9 (N) = 6-thio-2'-deoxyinosine, S-ethylene-S interstrand cross-linked to 4-thio-2'-deoxyuridine at strand 2 U6, strand 2 A9 = N6-methyl-dA) [nM]
1 | GCCGCTCGNTGCCG / CGGCAUCGAGCGGC [1I6S·2U4S (unlocked A/T analog)] | 1 | –
2 | GCCGCTCGNTGCCG / CGGCAUCGAGCGGC [1I6S-Et-S4U2 (locked, cross-linked A/T analog)] | – | 6
